Reference: patent publication US10392620B2, “Cytochrome B (CYTB) nucleic acid molecules that control pathogens” (Dow AgroSciences LLC, priority 2016, dated 2019)

B1: MgCytB-T3: 116 bp dsRNA of Zymoseptoria CytB region 3, location 279-394 (SEQ ID NO:6) (nucleic acid, listed as Zymoseptoria tritici)
chain: TTACCTGCACGTGGGTAGAGGGTTATACTACGGGTCATACAAAGCCCCTAGAACATTAACATGAACAATCGGTACTATAATACTAGTTCTGATGATGGCAACCGCATTCTTAGGGT
modifications: long dsRNA, chemistry not given here, further chemistry not given here
B2: MgCytB-T1: 267 bp dsRNA of Zymoseptoria CytB region 1, location 364-630 (SEQ ID NO:4) (nucleic acid, listed as Zymoseptoria tritici)
chain: GTTCTGATGATGGCAACCGCATTCTTAGGGTATGTATTACCTTATGGTCAAATGTCTTTATGAGGAGCAACAGTTATAACTAACTTATTGAGTGCAATACCTTGAGTTGGACAAGACATAGTTGAATTCGTATGAGGTGGATTTTCTGTTAACAATGCAACATTGAACAGATTCTTTGCTCTACATTTCGTTTTACCGTTTGTGTTAGCTGCATTAGTTTTAATGCATCTAATAGCTTTACACGATACAGCGGGTTCAGGAAATCCT
modifications: complementary strand of dsRNA
B3: MgCytB-T5: 172 bp dsRNA of Zymoseptoria CytB region T5, location 173-344 (SEQ ID NO:8) (nucleic acid, listed as Zymoseptoria tritici)
chain: TATCTGAAGCATTTAACTCAGTTGAACACATAATGAGAGATGTAAACAATGGATGACTTATACGTTATCTTCACTCTAATACTGCTTCAGCTTTCTTCTTTTTAGTTTACCTGCACGTGGGTAGAGGGTTATACTACGGGTCATACAAAGCCCCTAGAACATTAACATGAAC
modifications: complementary strand of dsRNA
B4: MgCytB-T6: 258 bp dsRNA of Zymoseptoria CytB region T6, location 775-1032 (SEQ ID NO:9) (nucleic acid, listed as Zymoseptoria tritici)
chain: GTTATGGCTAACCCTATGCAAACTCCACCTGCTATAGTGCCTGAATGATATTTATTACCTTTCTACGCTATACTAAGATCAATACCTAACAAACTATTAGGTGTGATCGCAATGTTTTCTGCTATATTGATTATAATGATAATGCCAATTACCGATTTAGGTAGAAGTAGAGGATTACAGTTTAGACCTTTAAGCAAGATCACATTTTACATATTTGTTGCTAACTTCTTAGTATTAATGCAATTAGGTGCTAATCAC
modifications: complementary strand of dsRNA
B5: MgCytB-T4: 219 bp dsRNA of Zymoseptoria CytB region T4, location 1-219 (SEQ ID NO:7) (nucleic acid, listed as Zymoseptoria tritici)
chain: ATGAGGATTTGGAAGAGTCACCCTTTATTTAGTCTGGTTAATGGTTATCTTATCGATTCACCACAACCAAGTAATCTAAGCTATCTATGAAATTTCGGTTCATTACTGGGATTTTGTCTTGTAATACAAATCGTTACTGGTGTTACACTTGCTATGCATTATAACCCTAGCGTATCTGAAGCATTTAACTCAGTTGAACACATAATGAGAGATGTAAAC
modifications: complementary strand of dsRNA
B6: MgCytB-T7: 221 bp dsRNA of Zymoseptoria CytB region T7, location 947-1167 (SEQ ID NO:10) (nucleic acid, listed as Zymoseptoria tritici)
chain: GATTACAGTTTAGACCTTTAAGCAAGATCACATTTTACATATTTGTTGCTAACTTCTTAGTATTAATGCAATTAGGTGCTAATCACGTTGAGTCACCATTTATAGAATTTGGGCAAATTAGTACAGTACTGTACTTTTCACATTTCTTAATCATAGTGCCTCTAGTAAGCTTAATCGAGAATACTTTAGTGGATATGCACTTAAACAACACAATAACGTAA
modifications: complementary strand of dsRNA
B7: MgCytB-T2: 203 bp dsRNA of Zymoseptoria CytB region 2, location 603-805 (SEQ ID NO:5) (nucleic acid, listed as Zymoseptoria tritici)
chain: ACACGATACAGCGGGTTCAGGAAATCCTTTAGGTGTATCAGGTAACTACGATAGATTACCATTCGCCCCTTACTTTATATTCAAAGATTTAATAACAATATTTTTATTCATTATAGTGTTATCAATATTTATTTTCTTTATGCCTAACGTTTTAGGTGACAGCGAGAATTATGTTATGGCTAACCCTATGCAAACTCCACCTG
modifications: complementary strand of dsRNA

Tests used:
[1] = system: Zymoseptoria tritici (SEPTTR) US-184; assay: CytB dsRNA foliar application bioassay on wheat seedlings, SEPTTR US-184; assay type: in vivo; conditions: compared to the non-treated control; strain not given
Procedure: RNAi (dsRNA) fungicidal solutions were prepared in TE buffer (pH 8.0), which were then mixed with 9 volumes of phosphate buffer (pH 7.5) containing 0.1% Triton X-100. The fungicidal solutions were applied to wheat seedlings using an automated booth sprayer to run-off. All sprayed plants were allowed to air dry prior to further handling.
The following served as controls: 1% silwet in phosphate buffer control, disease pressure control (untreated), and clean plant control (negative control).
(§1) These plants were inoculated with an aqueous spore suspension of Zymoseptoria tritici either prior to or after fungicidal treatments. After inoculation the plants were kept in 100% relative humidity to allow spores to germinate and infect the leaves. The plants were then transferred to a greenhouse until disease developed.

[2] = system: Zymoseptoria tritici (SEPTTR-184); assay: Efficacy of target gene fragments (MgCytB dsRNA tiles) on wheat plants, SEPTTR-184; assay type: in vivo; design: Average of 2 trials SEPTTR-184 3DC / Average of 2 trials SEPTTR-184 1DP: scale not given here; conditions: for ED50 SEPTTR-184 1DP / ED80 SEPTTR-184 1DP / Disease Control All Rates Average SEPTTR-184 1DP / Sum of Disease Control SEPTTR-184 1DP / Average of 2 trials SEPTTR-184 1DP: 1DP (preventative); for Disease Control All Rates Average SEPTTR-184 1DP / Disease Control All Rates Average SEPTTR-184 3DC: average of 200, 50, 12.5, 3.125 ppm; for Sum of Disease Control SEPTTR-184 1DP / Sum of Disease Control SEPTTR-184 3DC: sum over 200, 50, 12.5, 3.125 ppm; for ED50 SEPTTR-184 3DC / ED80 SEPTTR-184 3DC / Disease Control All Rates Average SEPTTR-184 3DC / Sum of Disease Control SEPTTR-184 3DC / Average of 2 trials SEPTTR-184 3DC: 3DC (curative)
Procedure: The 200 ppm rate for each treatment was prepared by adding the calculated volume of the corresponding dsRNA solution in TE buffer. Lower rates were prepared as 4-fold dilutions (50 ppm, 12.5 ppm, and 3.12 ppm). A non-target dsRNA control (YFP), a TE/phosphate buffer control, disease pressure control, and clean plant control were included.
as §1

| Molecule | control of Septoria leaf blotch on wheat seedlings [1] | ED50 SEPTTR-184 1DP [2] [ppm] | ED80 SEPTTR-184 1DP [2] [ppm] | Disease Control All Rates Average SEPTTR-184 1DP [2] [%] | Sum of Disease Control SEPTTR-184 1DP [2] [%] | ED50 SEPTTR-184 3DC [2] [ppm] | ED80 SEPTTR-184 3DC [2] [ppm] | Disease Control All Rates Average SEPTTR-184 3DC [2] [%] | Sum of Disease Control SEPTTR-184 3DC [2] [%] | Average of 2 trials SEPTTR-184 1DP ([2]; 3.125 ppm) | Average of 2 trials SEPTTR-184 3DC ([2]; 3.125 ppm) | Average of 2 trials SEPTTR-184 1DP ([2]; 12.5 ppm) | Average of 2 trials SEPTTR-184 3DC ([2]; 12.5 ppm) | Average of 2 trials SEPTTR-184 1DP ([2]; 50 ppm) | Average of 2 trials SEPTTR-184 3DC ([2]; 50 ppm) | Average of 2 trials SEPTTR-184 1DP ([2]; 200 ppm) | Average of 2 trials SEPTTR-184 3DC ([2]; 200 ppm) | level of control, ranking among fragments ([2]; in vivo) |
| --- | --- | --- | --- | --- | --- | --- | --- | --- | --- | --- | --- | --- | --- | --- | --- | --- | --- | --- |
| B1 | observed to control Septoria leaf blotch | <3.125 | >200 | 68 | 271 | <3.125 | <3.125 | 84 | 334 | 59 | 84 | 64 | 84 | 74 | 81 | 74 | 84 | best level of control |
| B2 | observed to control Septoria leaf blotch | <3.125 | 200 | 66 | 263 | <3.125 | 159 | 79 | 318 | 53 | 77 | 58 | 76 | 71 | 79 | 80 | 85 | – |
| B3 | – | <3.125 | >200 | 71 | 284 | 4.605 | 200 | 66 | 265 | 68 | 47 | 68 | 66 | 73 | 72 | 76 | 80 | – |
| B4 | – | <3.125 | >200 | 73 | 293 | <3.125 | >200 | 60 | 239 | 72 | 53 | 77 | 63 | 72 | 64 | 72 | 59 | – |
| B5 | – | <3.125 | >200 | 73 | 292 | <3.125 | 44 | 79 | 316 | 71 | 76 | 74 | 75 | 73 | 81 | 74 | 83 | – |
| B6 | – | <3.125 | >200 | 69 | 275 | <3.125 | >200 | 74 | 297 | 60 | 76 | 69 | 72 | 71 | 73 | 75 | 76 | – |
| B7 | observed to control Septoria leaf blotch | <3.125 | >200 | 71 | 285 | <3.125 | 27 | 82 | 329 | 67 | 77 | 71 | 77 | 71 | 85 | 77 | 90 | – |
